Tests used:
SOX2 [1] = target: T1, SOX2 (human, UniProt P48431 1-317); experiment: competition
NANOG = NANOG (human, UniProt Q9H9S0 1-305); experiment: Ni-NTA filter microplate fluorescent DNA binding
SOX2 [2] = target: T1, SOX2; experiment: Ni-NTA filter microplate fluorescent DNA binding

T1 sequence (P48431 whole entry): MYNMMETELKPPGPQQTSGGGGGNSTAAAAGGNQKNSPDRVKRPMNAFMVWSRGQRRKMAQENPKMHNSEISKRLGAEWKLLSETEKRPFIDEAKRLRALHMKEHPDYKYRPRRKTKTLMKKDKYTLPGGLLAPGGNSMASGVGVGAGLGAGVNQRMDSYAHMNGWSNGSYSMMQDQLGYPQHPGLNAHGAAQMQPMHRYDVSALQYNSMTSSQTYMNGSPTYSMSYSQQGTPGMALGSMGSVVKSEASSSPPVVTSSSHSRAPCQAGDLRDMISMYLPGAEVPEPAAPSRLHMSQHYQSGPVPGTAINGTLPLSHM
Chain of NANOG (Q9H9S0 whole entry): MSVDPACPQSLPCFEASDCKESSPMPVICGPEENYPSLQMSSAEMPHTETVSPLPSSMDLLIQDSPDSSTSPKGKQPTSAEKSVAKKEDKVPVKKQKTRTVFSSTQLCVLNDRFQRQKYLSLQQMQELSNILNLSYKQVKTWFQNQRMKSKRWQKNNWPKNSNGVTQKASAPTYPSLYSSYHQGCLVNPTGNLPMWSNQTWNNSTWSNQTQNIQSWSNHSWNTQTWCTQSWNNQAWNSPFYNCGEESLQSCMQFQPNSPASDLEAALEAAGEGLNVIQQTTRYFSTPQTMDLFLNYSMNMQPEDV

B1: nonsense probe (dsDNA)
DNA 1: GCCCGATTACTCTGTCCT
DNA 2: AGGACAGAGTAATCGGGC
binding result (SOX2 [1]): no binding

B2: NANOG cognate probe (Tcf3 enhancer) (dsDNA)
DNA 1: ACCTGTTAATGGGAGCGC
DNA 2: GCGCTCCCATTAACAGGT
Kd (NANOG): 44 ± 6 nM

B3: SOX2 cognate probe (CR4 POU5F1) (dsDNA)
DNA 1: GCAGAGGACAAAGGTGCCGTG
DNA 2: CACGGCACCTTTGTCCTCTGC
Kd (SOX2 [2]): 54.2 ± 9 nM
